Here are results for one molecule from publication PMC4963197, “Phosphorylation acts positively and negatively to regulate MRTF-A subcellular localisation and activity” (eLife, 2016).

This test addresses G-actin, P68135. The test is described as follows: size exclusion chromatography. The settings on record: chain shown with the change. (SEC sorts molecules by how far they enter the pores of the column.)

B1: MRTF-A(67–199) L74A; L78A; S98D (protein)
chain: LSERKNVAQLKAQQRRTREELVSQGIMPPLKDPAAFHEQRRSLERARTEDYLKRKIRSRPERAELVRMHILEETSAEPSLQAKQLKLKRARLADDLNEKIAQRPGPMELVEKNILPVESSLKEAIIVGQVNYP
Regarding B1, the other: actins (apparent stoichiometry of G-actin binding) turned out to be 2.3.
